Experimental data: patent US6475718

Molecular target: orphan seven transmembrane domain receptor APJ (human) (UniProt P35414)
Experiment: cell-based or functional assay

Chain of UniProt P35414 (P35414 whole entry I109M/F110L, the tested form may be a part): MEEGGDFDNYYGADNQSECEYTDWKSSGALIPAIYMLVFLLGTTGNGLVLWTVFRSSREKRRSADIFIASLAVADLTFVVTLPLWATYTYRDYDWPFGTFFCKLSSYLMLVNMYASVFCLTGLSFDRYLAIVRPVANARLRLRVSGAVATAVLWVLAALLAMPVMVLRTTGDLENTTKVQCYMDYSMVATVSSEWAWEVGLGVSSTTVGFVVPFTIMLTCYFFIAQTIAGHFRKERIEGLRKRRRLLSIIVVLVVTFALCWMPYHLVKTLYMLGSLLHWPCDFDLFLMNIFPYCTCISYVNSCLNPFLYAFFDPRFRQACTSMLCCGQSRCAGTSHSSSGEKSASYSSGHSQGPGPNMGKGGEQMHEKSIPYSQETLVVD

HIV-1 89.6 env protein (from UniProt Q73372 32-853)
cell-cell fusion (luciferase activity), QT6 target cells with CD4 and APJ (% of that observed with CXCR4): > 70
